# Test results reported in patent US20260373285 (published 2026).
# Experiments:
# hPD-L1(ECD)-His [1] = molecular target: T1, hPD-L1(ECD)-His (human, UniProt Q9NZQ7); assay: SPR
# hPD-L1(ECD)-His [2] = molecular target: T1, hPD-L1(ECD)-His; assay: SPR; remark: listed apart in the source
# hPD-L1(ECD)-His [3] = molecular target: T1, hPD-L1(ECD)-His; assay: SPR supernatant
# hPD-L1(ECD)-His [4] = molecular target: T1, hPD-L1(ECD)-His; assay: SPR; remark: listed apart in the source
# [5] = molecular target: T2, human PD-L1 full length (on CHO cells) (human, UniProt Q9NZQ7); assay: competition FACS vs CD80
# [6] = molecular target: T2, human PD-L1 full length (on CHO cells); assay: competition FACS vs PD-1
# [7] = molecular target: T2, human PD-L1 full length (on CHO cells); assay: FACS
# cPD-L1(ECD)-His = cPD-L1(ECD)-His (cynomolgus); assay: ELISA
# hPD-L1(ECD)-His [8] = molecular target: T1, hPD-L1(ECD)-His; assay: ELISA
# hPD-L1(ECD)-His [9] = molecular target: T1, hPD-L1(ECD)-His; assay: SPR; remark: listed apart in the source
# T2 sequence (Q9NZQ7 19-238): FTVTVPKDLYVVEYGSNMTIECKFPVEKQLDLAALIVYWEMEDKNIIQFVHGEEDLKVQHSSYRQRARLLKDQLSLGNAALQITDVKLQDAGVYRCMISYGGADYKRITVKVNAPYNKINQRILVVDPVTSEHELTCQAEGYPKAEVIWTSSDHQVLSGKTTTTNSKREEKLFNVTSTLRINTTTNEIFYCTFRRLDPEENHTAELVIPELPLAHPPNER
# T1 sequence (Q9NZQ7 19-238): as above
# Sequence of cPD-L1(ECD)-His (cynomolgus) (chain, as listed by the source): as the sequence (Q9NZQ7 19-238) above, with A33T, A34S, S62N, R68Q, Q82R, F173L, T185A, T192I, H215L counted along it
Binder,Kd (hPD-L1(ECD)-His [1]) [nM],Kd (hPD-L1(ECD)-His [2]) [nM],Kd (hPD-L1(ECD)-His [3]) [nM],Kd (hPD-L1(ECD)-His [4]) [nM],further results
"ALGA105S PD-L1 arm (antibody, V domains shown) VH: EVQLVQSGAEVKKPGATVKISCKVSGFNIEDTYIYWVQQAPGKGLEWMGWIDPANYNTKYDPRFQDRVTITVDTSTDTAYMELSSLRSEDTAVYYCARGLRLLMDYWGQGTTVTVSS VL: DIQLTQSPSFLSASVGDRVTITCKASQNVHTSLAWYQQKPGKSPKLLIYLASNRHTGVPSRFSGSGSGTEFTLTISSLQPEDFATYYCLQHWNYPLTFGQGTKLEIKR",0.824,0.824,–,–,–
"ALGA105X PD-L1 arm (antibody, V domains shown) VH: EVQLVQSGAEVKKPGATVKISCKVSGFNIEDTYIYWVQQAPGKGLEWMGWIDPANYNTKYDPRFQDRVTITVDTSTDTAYMELSSLRSEDTAVYYCARGLRLLMDYWGQGTTVTVSS VL: DIQLTQSPSFLSASVGDRVTITCKASQNVHTSLAWYQQKPGKSPKLLIYLASNRHTGVPSRFSGSGSGTEFTLTISSLQPEDFATYYCLQHWNYPLTFGQGTKLEIKR",0.822,0.822,–,–,–
"PD-L1-1.168.15 (antibody, V domains shown) VH: EVQLQQSGAELVKPGASVKLSCTVSGFNIEDTYIYWVKQRPEQGLEWIGWIDPANYNTKYDPRFQDKATVTVDTSSNTAYMHLSSLTSEDTAVYYCARGLRLLMDYWGQGTSVTVSS VL: DIVMTQSQKFMSSSVGDRVSITCKASQNVHTSLAWYQQRPGQSPKALIYLASNRHTGVPDRFTGSGSGTDFTLTISNVQSEDLADYFCLQHWNYPLTFGAGTKLELRR",–,–,–,–,IC50 [5]: 2.07 nM; IC50 [6]: 3 nM; EC50 [7]: 1.02 nM; EC50 (cPD-L1(ECD)-His): 0.38 nM; EC50 (hPD-L1(ECD)-His [8]): 0.028 nM; Kd (hPD-L1(ECD)-His [9]): 0.295 nM
"PD-L1-1.168.15-xIgG1K (antibody, V domains shown) VH: EVQLQQSGAELVKPGASVKLSCTVSGFNIEDTYIYWVKQRPEQGLEWIGWIDPANYNTKYDPRFQDKATVTVDTSSNTAYMHLSSLTSEDTAVYYCARGLRLLMDYWGQGTSVTVSS VL: DIVMTQSQKFMSSSVGDRVSITCKASQNVHTSLAWYQQRPGQSPKALIYLASNRHTGVPDRFTGSGSGTDFTLTISNVQSEDLADYFCLQHWNYPLTFGAGTKLELRR",–,–,0.379,0.275,–

# Now from value to binder, other results behind:
Kd (hPD-L1(ECD)-His [1]) [nM],Kd (hPD-L1(ECD)-His [2]) [nM],Kd (hPD-L1(ECD)-His [3]) [nM],Kd (hPD-L1(ECD)-His [4]) [nM],Binder,further results
–,0.647,0.775,0.613,"PD-L1-1.168.15-z4-uIgG1K (antibody, V domains shown) VH: EVQLVQSGAEVKKPGATVKISCKVSGFNIEDTYIYWVQQAPGKGLEWMGWIDPANYNTKYDPRFQDRVTITVDTSTDTAYMELSSLRSEDTAVYYCARGLRLLMDYWGQGTTVTVSS VL: DIQLTQSPSFLSASVGDRVTITCKASQNVHTSLAWYQQKPGKSPKLLIYLASNRHTGVPSRFSGSGSGTEFTLTISSLQPEDFATYYCLQHWNYPLTFGQGTKLEIKR",–
–,–,0.837,0.876,"PD-L1-1.168.15-z3-uIgG1K (antibody, V domains shown) VH: EVQLVQSGAEVKKPGATVKISCKVSGFNIEDTYIYWVQQAPGKGLEWMGWIDPANYNTKYDPRFQDRVTITVDTSTDTAYMELSSLRSEDTAVYYCARGLRLLMDYWGQGTTVTVSS VL: DIQLTQSPSFLSASVGDRVTITCKASQNVHTSLAWYQQKPGKAPKLLIYLASNRHTGVPSRFSGSGSGTEFTLTISSLQPEDFATYYCLQHWNYPLTFGQGTKLEIKR",–
